Data on one molecule can be found in patent publication US20230374148A1, “BINDING MOLECULES THAT MULTIMERISE CD45” (UCB BIOPHARMA SRL, priority 2020, published 2023).

For test [1], the target named is T1, CD45 ECD (Homo sapiens, UniProt P08575).
T1 construct: extracellular domain of CD45 (UniProtKB—P08575, residue positions 225-573); TEV cleavage site (C); 10-His tag (C); made in house; host or cells: HEK293
T1 sequence (P08575 225-573): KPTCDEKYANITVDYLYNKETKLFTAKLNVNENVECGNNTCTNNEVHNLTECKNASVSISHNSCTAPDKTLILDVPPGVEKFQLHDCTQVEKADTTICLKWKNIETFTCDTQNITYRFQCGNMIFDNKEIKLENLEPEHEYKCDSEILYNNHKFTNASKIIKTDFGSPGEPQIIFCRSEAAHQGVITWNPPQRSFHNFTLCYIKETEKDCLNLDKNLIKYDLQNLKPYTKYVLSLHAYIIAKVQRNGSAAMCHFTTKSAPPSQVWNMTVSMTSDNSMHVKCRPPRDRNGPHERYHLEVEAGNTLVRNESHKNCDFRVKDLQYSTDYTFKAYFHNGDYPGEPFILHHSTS
As to the kind of experiment: Mass photometry of mixture of CD45 ECD and BYbe. Type of test: binding. The conditions noted are these: for Theoretical mass (kDa): based on observed masses of 62 and 76 kDa. The method, then:
Data were acquired on a RefeynOneMP mass photometer (Refeyn Ltd, Oxford, UK) using AcquireMP (Refeyn Ltd, v2.2.1) software and images were processed and analysed using DiscoverMP (v2.3.dev12) software.
Measurements were performed using clean glass coverslips (High Precision coverslips, No. 1.5, 24×50 mm, Marienfeld) mounted with silicon gaskets (CultureWell™ Reusable Gaskets, Grace biolabs) cut in to 2×2 well sections. Protein stocks were diluted directly in Dulbecco's Phosphate-Buffered Saline (DPBS, ThermoFisher). Typical working concentrations of protein complexes were 1-100 nM, depending on the dissociation characteristics of the protein complexes.
The instrument lens was cleaned with Iso-propyl alcohol (IPA), allowed to dry and a drop of Olympus Low Auto Fluorescence Immersion Oil (NC0297589, ThermoFisher) placed on the lens prior to positioning the microscope coverslip with sample in the light stage. To find focus, 15 μl of fresh DPBS was pipetted into a silicone well, the focal position was identified and secured in place with an autofocus system based on total internal reflection for the entire measurement. For each acquisition, 5 μl of diluted protein was introduced into the well, mixed thoroughly (before autofocus stabilization), and movies of 90 s duration recorded. Each sample was measured once, with a new well and buffer used for each measurement. The mixture of CD45 ECD and 4133-6294 BYbe was not pre-incubated and therefore complexing occurred when the 2 proteins were added into the well.

The target in test [2] is T1, CD45 ECD. As to the kind of experiment: Sedimentation velocity, analytical ultracentrifuge. Type of test: binding. The settings on record: for Experimental S value: molar 1:1 mixture. As for the experimental part:
CD45 ECD and 4133-6294 BYbe were mixed in a molar ratio of 1:1 and incubated for 1 hour at room temperature. The molar ratio was determined using the predicted mass of 4133-6294 BYbe at 73.5 kDa and the mass of CD45 ECD as determined by mass photometry at 62 kDa.
The CD45 ECD-4133-6294 BYbe mixture, CD45 ECD only or 4133-6294 BYbe only were loaded into cells with 2-channel charcoal-epon centrepieces with 12 mm optical path length and glass quartz glass windows. The corresponding buffer was loaded into the reference channel of each cell (the instrument functions like a dual beam spectrometer). Those loaded cells were then placed into an AN-60Ti analytical rotor, loaded into a Beckman-coulter Optima analytical ultracentrifuge and brought to 20° C. The rotor was then brought to 3,000 rpm and the samples were scanned at 280 nm to confirm proper cell loading and appropriate adjustment of the laser, via the laser delay setting. The rotor was then brought to the final run speed of 50,000 rpm. Scans were recorded every 20 seconds for 8 hours. Radial scans ranged from 5.75 to 7.25 cm.
The data were analysed using the c(s) method developed by peter Shuck at the N.I.H and implemented in his analysis program SEDFIT version 14.6e. In this approach many raw data scans directly fitted (36,000 data points for each sample in this case) to derive the distribution of sedimentation coefficients, while modelling the influence of diffusion on the data in order to enhance the resolution. The method works by assigning a diffusion coefficient to each value of sedimentation coefficient based on an assumption that all species have the same overall hydrodynamic shape (with shape defined by the frictional coefficient relative to that for a sphere, f/f0). The f/f0 values were varied to find the best overall fit of the data for each sample. A maximum entropy regularization probability of 0.95 was used and time invariant noise was removed. The analysis was performed using the standard solvent model.

B1: 4133-6294 BYbe: anti-CD45 BYbe (Fab-scFv): 4133 Fab HC-G4S linker-6294 scFv heavy chain paired with 4133 light chain (antibody)
heavy: QEQLVESGGGLVQPEGSLTLTCTASGFSFSGNYYMCWVRQAPGKGLEWIGCLYTGSSGSTYYASWAKGRFTISKTSSTTVTLQMTSLTAADTATYFCARDLGYEIDGYGGLWGQGTLVTVSSGQPKAPSVFPLAPCCGDTPSSTVTLGCLVKGYLPEPVTVTWNSGTLTNGVRTFPSVRQSSGLYSLSSVVSVTSSSQPVTCNVAHPATNTKVDKTVAPSTCSKPGGGGSGGGGSEVQLVESGAELARPGASVKMSCKASGYTFTSYTMHWVKQRPGQCLEWIGYINPSSGYTEYNQKFKDKTTLTADKSSSTAYLQLSSLTSEDSAVYYCARVGDGFYPSWLAYWGQGTLVTVSSGGGGSGGGGSGGGGSGGGGSDIQMTQSPKFLLVSAGDRVTITCKASQSVRNDVAWYQQKPGQSPKLLIFYASKRYTGVPDRFTGSGYGTDFTFTISTVQAEDLAVYFCQQDYSSPTTFGCGTKLEIK
light: AQVLTQTPSPVSAVVGGTVSISCQASQSVYNNNNLSWYQQKPGQPPKLLIYDASKLASGVPSRFKGSGSGTQFTLTISGVQCDDAATYYCLGGYYSSGWYFAFGGGTKVVVKRTPVAPTVLIFPPAADQVATGTVTIVCVANKYFPDVTVTWEVDGTTQTTGIENSKTPQNSADCTYNLSSTLTLTSTQYNSHKEYTCKVTQGTTSVVQSFNRGDC
For B1, the “Observed mass (kDa)” value with CD45 ECD [1] (1× (CD45 + BYbe) complex in mixture of CD45 ECD and 4133-6294 BYbe) was found to be 136 kDa; in the test with CD45 ECD [1] (2× (CD45 + BYbe) complex in mixture of CD45 ECD and 4133-6294 BYbe) it was 274 kDa; in the test with CD45 ECD [1] (3× (CD45 + BYbe) complex in mixture of CD45 ECD and 4133-6294 BYbe), 415 kDa; with CD45 ECD [1] (4× (CD45 + BYbe) complex in mixture of CD45 ECD and 4133-6294 BYbe), 555 kDa. Besides, the “Theoretical mass (kDa)” value with CD45 ECD [1] (1× (CD45 + BYbe)) was determined as 138 kDa; with CD45 ECD [1] (2× (CD45 + BYbe)), 276 kDa; with CD45 ECD [1] (3× (CD45 + BYbe)), 414 kDa; in the test with CD45 ECD [1] (4× (CD45 + BYbe)), 552 kDa. Moreover, the “Experimental S value” came out at 6.9 S with CD45 ECD [2] (CD45 1:1 BYbe complex); 7.15 S with CD45 ECD [2] (CD45 2:1 BYbe complex); 8.78 S with CD45 ECD [2] (CD45 2:2 BYbe complex); 10.04 S with CD45 ECD [2] (CD45 3:3 BYbe complex); 11.12 S with CD45 ECD [2] (CD45 4:3 BYbe complex); 13.3 S in the test with CD45 ECD [2] (CD45 4:4 BYbe complex). Moreover, the “Percentage of area under the curve” value with CD45 ECD [2] (CD45 1:1 BYbe in molar 1:1 mixture) turned out to be 11.99%; with CD45 ECD [2] (CD45 2:2 BYbe in molar 1:1 mixture), 37.7%; in the test with CD45 ECD [2] (CD45 3:3 BYbe in molar 1:1 mixture), 35.7%; with CD45 ECD [2] (CD45 4:4 BYbe in molar 1:1 mixture), 3.46%; with CD45 ECD [2] (CD45 (uncomplexed) in molar 1:1 mixture of CD45 ECD and BYbe) it was 9.21%.
